Measurements reported in the nanobody polyreactivity screen of Harvey et al. (2022).

Assay: yeast display, Sf9 membrane polyspecificity reagent, FACS + sequencing; frameworks hold sequencing errors
Procedure, shortened: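 Galactose-induced (36–48 hours) yeast carrying a synthetic nanobody display library were exposed to 10% biotinylated, detergent-solubilized Sf9 membrane reagent at 4 °C for 1 hour. FACS followed streptavidin microbead enrichment, using low and high (top ~1%) gates for expression (anti-HA) and reagent binding (streptavidin). Colony PCR, MiSeq 2 × 250 sequencing and CDR-length filtering followed. Labels for polyreactivity reflect the gate of origin.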

Row | Sequence | polyreactivity (PSR sort gate)
1 | PVQLVESGGGLVQAGGSLRLSCAASGSIFGYYAMGWYRQAPGKERELVAAISSSGASTYYADSVKGRFTISRDNAKNTVSLQMNSLKPEDTAVSYCIAARRYPTRGGYWGQGTQVTVSS | high polyreactivity
2 | QVQLVESVGGLDQAGGTLRLSCAASGSTFKYNGMGWYRQAPGKERELVAAISWRAGSTYADSVKGRFTISRDNAKNTVYLLMYSLKPEDTEVYYCAARLKYWGDYYYWGQGTQVTVSS | low polyreactivity
3 | QVQLVESGGGLVQAGGSLPLSCAASGSIFDKYTMGWYRQAPGKERELVAAISRDSGSTYYADSVKGRFTISRDNAKNTVYLQMNSLKPEDTAVYYCAARLGYYGYDYWGQGTQVTVSS | low polyreactivity
4 | QVQLVESGGGLVQAGGSLRLSCAASGSIFVEYAMGWYRQAPGKERELVAGISSGGITSYADSVKGRFTISRDNAKNTVYLQMNSLKPEDTAGYYCATDPYKWFYSSYYLLQEVEYWGQGTQVTVSS | low polyreactivity
5 | QFQLVESGGGLVQAGGSLRLSCAASGFIFTRYVMGWYRQAPGKERELVAAINWSGDSTYYADSVKGRFTISRDYAKNTVYLQLNSLKPEDTAVYYCNADYGWVDTYTNYDYWGQGTQVTVSS | low polyreactivity
6 | QVQLVESGGGLVQAGGSLRLSCAASGRTFVGYAMGWYRQAPGKERELVAAITYSGVSTYYADSVKGRFTISRDNAKNTVYLQMNSLKPEDTAVYYCAADYISVYGYEYYYWGQGTQVTVSS | high polyreactivity
7 | QVQLVESGGGLVHAGGSLRLSCAASGFTFSYNARGWYRQAPGKERELVASITRSGGRTYYADSVKGRFTISRDNAKNTVYLQMNSLKPEDTGVYYCAAVWYPWLSSIFDYWGQGTQVTVSS | high polyreactivity
8 | QVQLVESGGGLVQAGGSLRLSCAASGSTFVGYAMGWYRQAPGKERELVAAISGRGGSTYYADSVKGRFTISRDNAKNTVYLQMNSLKPEDTAVYYCNARRRKTVPNYIYNYWGQGTQVTVSS | high polyreactivity
9 | QVQLVESGGGLVQAGGSLRLSCAASGRIFTSNAMGWYRQAPGKERELVAAISSSGTRTYYADSVKGRFTISRDNAKNTVYLQMNSHKPEDTAVYYCASGAPSLKYEYWGQGTQVTVSS | high polyreactivity
10 | QVQLVESGGGLVQAGGSLRLSCAASGFTFIGYAMGWNRQAPGKERELVADITYSGSSTYYADSVKGRFTISRDNAKNTVYFQMNSLKPEDTAVYYCAAEAYYYWFDVVYWGQGSQVTVSS | low polyreactivity
11 | QVQLVESGGGLVQAGGRLRLSCAASGSIFDYNGMGWYRQAPGKERELVATITLSTARTYYADSVKGRFTISRDNAKNTVYLQMNSLKPEDTAVYYCATRYPKFRRRNYWGQGTQVTVSS | high polyreactivity
12 | QVQLVESGGGLVQAGGSLRLSCAASGFTFYYYAMGWSRQAPGKERELVAAISTRDGNTYYADSVKGRFTISRDNAKNTVYLQRNSLKPEDTAVYYCAADYFRYYPYDYWGQGTQVTVSS | low polyreactivity
13 | QVQLVESGGGLVQAGGSLRLSCAASGNIFLYYAMGWYRQAPGKEMELVAAISWSGSSTYYADSVKGRFTISRDNAKNTVYLQMNSLKPEDTAVYYCNKRATRSRRRGYWGQGTQVTVSS | low polyreactivity
14 | QVQLVESGGGLVHAGGSLRLSCAASGITFSRNTMGWYRQAPGKERELVAAITLRGGGRTYYADSVKGRFTISRDNAKNTVYLQMISLKPEDTAVYYCAARYLVTFGHQQRYFYWGQGTHVTVSS | high polyreactivity
15 | QVQLVESGGGLVQAGGSLRISCAASGGIFDTYVMGWYRQAPGKERELVAAISSSGSTTYADSVKGRFTISRDNAKNTVYLQMNSLKPEDTAVYYCNADYSTIWRYDYWGQGTQVTVSS | low polyreactivity
16 | QVQLVESGGGLVQEGGSLRLSCAASGSTFGLYAMGWYRQAPGKERELVAAISSRGSRTYYADSVKGRFTISRDNAKNTVYLQMNSLKPEDTAVYYCNAMYASCVRHKVTYDYWGQGTLVTVSS | high polyreactivity
17 | QVQLVESGGGLVQAGGSHRLSCAASARILYRNAMGRYRQAPGKERELVAAITTRGTSTYYADSVKGRFTISRDNANNTVYLQMNSLKPEDTAVYYCNKVTRDLTQGYDYWGQGTQVTVSS | high polyreactivity
18 | QVQLVESGGGLDQAGGSLRLSCAASGSTFVGYAMGWYRQAPGKERELVAAISYSGGRTYYADSVKGRFTISRDNAKNTVYLQMNSLKPEDTAVYYCAALVGGSGWWGRDYWGQGTQVTVSS | high polyreactivity
19 | QVQLVESGGGILQARGSRPLICAASGSNLSYNAMGWYRQAPGKEREFVATITGTGGSTRYADSVKGRFTFSRDNAKNTVYLQMNSLNPEDTAVYYCATAAWWYYRIYHEFGFLGQGTQVTVSS | high polyreactivity
20 | QVQLVESGGGLVQAGGSLRLSCAASGSILYINTMGWYRQAPGKERELVAAITYSGGSTYYADSVKGRLTISRDNAKNTVYLQMNRLKPEDTAVYYCAADGYYGGYNYWGQGTQVTVSS | low polyreactivity
21 | QVQLVESGGGLVQAGGSLRLSCAASGYTLNTYAMGWYRQAPGKERELVAAITWSGGRTYYADSVKGRFTISRDNAKNTVYLQMNSLKPEDTAVYYCNAVWRRSTGDSGYWGQGTQVTVSS | high polyreactivity

Row | Sequence | polyreactivity (PSR sort gate)
22 | QVQLVESGGGLVQAGGRLRLSCADSGFTFDANAMGWYRQAPGKEPELVAAISLSDGSTYYADSVKGRFTISRDNAKNTVYLQMNSLKPEDTAVYYCNAERFGSGLAWLLFDYWGQGTQVTVSS | low polyreactivity
23 | QVQLVESGGGIVQAGGSLRLSCAASGSIFKTNPMGWYRQAPGKERELVADISPSSGRTYYADSVKGRFTISRDNSKNTVYLQMNCLKPDDTAVYYCNRLSRRGYDYWGQGTQVTVSS | high polyreactivity
24 | QVQLVESGGGLVQAGGSLRLSCAASGNILVSYTMGWSRQAPGKDTELVAAINSGGNTNYADSVKGRFTISRDNAKNTVYLQMNSLKPEDTAVYYCNAYTDSLWVYPFWIYRDYDDWGHGTQVTVSS | low polyreactivity
25 | QVQLVESGGRLVQAGGSRRLSCAASGFTLRRNAMGWYRQAPGKERELVAAISSSGSTYYADSVKGRFTISRDNAKNTVYLQMNSLKPEDTAVYYCAALSKKVRTGQYNVGGDYWGQGTQVTVSS | high polyreactivity
26 | QVQLVESGGGLVQAGGSLRLSSAASGRIFDYYAMGWYRQAPGKESELVAAISSGSSTNYADSVKGRFTISRDNAKNTFYLQMNSLKPEDTAVYYCAATYGYLRRNHYNYWGQGTQVTVSS | high polyreactivity
27 | QDQLVESGGGLVQAGGSLRFSCASSGRIFRSYGMGWYRQAPGKERELVARIRNRGGSTYAHSVKGRFTISRDNAKNSVYLQMNSLKPEDTAVYYCAAGAYRHSVFSYDYWGQGTQVTVSS | high polyreactivity
28 | QVQLVESGGGLVQAGGSLRLSCAASGSNFTAYAMGWYRQAPGKERELVAAIDDSGDSTYYADSVKGRFTISRDNSKNTVYLQMNSLKPEDTAVYYCKAEYRVNKEYDYWGQGTQVTVSS | low polyreactivity
29 | QVQLVESGGGLVQAGGSLSLSCAASGSTFPEYVMGWYRQAPGKERELVAAITRRGGRTYYADSVKGRFTISRDNAKNTVYLQMNSLKPEDTEVYYCAAKSAVVVCMDSWGQGTQVTVSS | high polyreactivity
30 | QVQLVESGGGLVQAGGSLRLSCAASGFIFSYYTMGWYRQAPGKERELVAAITSGGSTNYADSVKGRFTISRDNAKNTVYLQMNSLKPEDTAVYYCNALLWAWTLWGSGYDYWGQGTQVTVSS | low polyreactivity
31 | QVQLVESGGGLVQAGGILRLSCAASGSIFSPYVMGWYRQAPGKERELVAAISTGGSTYYADSVKGRFTISRDNAKNTVYLQMNSLKPEDTAVYYCATDGWKQSAYDYWGQGTQVTVSS | low polyreactivity
32 | QVQLVESGGGLVQAGGSLRLSCAASGFIFDYNVMGWYSQAPGKKGSWVAAISWSGGSTYYADSVKGRFTISRDNAKNTVYLEINSLKPEDTAVYYCSSRGTSTFRGTGRYDYWGQGTQVTVSS | high polyreactivity
33 | QVQLVESGGGLVQAGGSLRLSCAASGSTYAYAMGWYRQAPGKEREFVAAITRSGGSTYYADSVKGRFTISRDNAKITVYLQMNSLKPEDTAVYYCRGNSTSWRGSQMDYWGQGTQVTVSS | high polyreactivity
34 | QVQLVESGGGLVQAGGSLRLSCAASGFTYGRYAMGWYRQAPGKERELVAVISWSGVSTYYADSVKGRFTISRDNAKNTVYLQMNSLKPEDTAVYYCNKRSYHYPYGYDYWGQGTQVTVSS | high polyreactivity
35 | QVQLVESGGGLVQAGGSLRLSCAASGSIFRYYAMGWYRQAPRKERELVAAISSNGGSTSYADSVKGRFTISRDNAKNTVYLQMNSLIPEYTAVYYCNTQFRYPQKYDYWGQGTQVTVSS | high polyreactivity
36 | QVQLVETGGGLVQAGGSLRLSCAASGRISYDYAMGWYRPPPGKERELVAAITTGGNTYYADSVKGRFTISRDNAKNTVYLQLNRLKPEDTAVYYCSVRGPYVRYNRYNYVYWGQGTQVTVSS | low polyreactivity
37 | QVQLVESGGGLVQAGGSLRLSCAASASTFVYNAKGWYRQAPGKERELVASITRSGSSTYYADSVKGRFTISRDNAKNTVYLQMNSLKPEDTAVYYCDVRYSVLSNYRYYYWGQGTQVTVSS | low polyreactivity
38 | QVQLVESGGGLVQAGGSLRLSCAASGRTFSVNAMGWYRQAPGKERELVAAIAWDGGSTYYADSVKGRFTISRDNAKNTVYLQMNSLKPEDTAVYYCNKDLYYAYDYWGQGTQVTVSS | low polyreactivity
39 | QVQLVESGGGLVQAGGSRSLSCAASGRNFYYYTMGWYRQAPGKERELVAAISWGGVNTDYADSVKGRFTISRDNAKNTVYLQMNSLKPEDTAVYYCAAGRWSVGTYDYWGQGTQVTVSS | low polyreactivity
40 | QVQLVESGGGLVQAGGSLRLTCAASGSTFRHNAMGWYRQAPGKETELVAVITDGASTNYADSVKGRFTMSRDNAKNTVYLQLNSLKPEDTAVYYCAAYHRGYYTGREYYYWGQGTQVTVSS | low polyreactivity
41 | QVQLVESGGGLVQAGGSLRLSCAASGSIFSYYAMGWYRQAPGKERELVAAISVSGGRTYYADSVKGRFTISRDNAKNTVYLQMNSLKPEDTAVYYCATRIRSYYYWGQGTQVTVSS | high polyreactivity
